Biological target: wasp_human WAS (UniProt P42768)
Sequence (P42768 whole entry): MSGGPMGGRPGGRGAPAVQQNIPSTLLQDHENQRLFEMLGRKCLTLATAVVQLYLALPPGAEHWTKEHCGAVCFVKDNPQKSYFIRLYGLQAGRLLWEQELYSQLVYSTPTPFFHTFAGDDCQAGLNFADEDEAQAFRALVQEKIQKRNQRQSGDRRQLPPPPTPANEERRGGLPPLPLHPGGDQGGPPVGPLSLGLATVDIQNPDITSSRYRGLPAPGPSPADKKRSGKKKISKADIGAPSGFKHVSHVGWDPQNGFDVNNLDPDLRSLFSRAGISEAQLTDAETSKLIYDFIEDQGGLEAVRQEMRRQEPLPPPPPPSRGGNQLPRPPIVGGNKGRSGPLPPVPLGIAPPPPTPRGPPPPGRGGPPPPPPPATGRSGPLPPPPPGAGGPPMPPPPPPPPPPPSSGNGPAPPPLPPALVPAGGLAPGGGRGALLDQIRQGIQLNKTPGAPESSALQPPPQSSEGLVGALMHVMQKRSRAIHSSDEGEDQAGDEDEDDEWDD

Cell division control protein 42 homolog (Homo sapiens), P60953 Y40C, sequence (P60953 whole entry Y40C): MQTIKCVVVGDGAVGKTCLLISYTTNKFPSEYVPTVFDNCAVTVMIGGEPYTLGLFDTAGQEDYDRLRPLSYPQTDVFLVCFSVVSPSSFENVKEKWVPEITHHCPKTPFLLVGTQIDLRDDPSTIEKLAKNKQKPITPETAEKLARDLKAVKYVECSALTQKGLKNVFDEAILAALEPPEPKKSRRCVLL

Cell division control protein 42 homolog (Homo sapiens), P60953 Y40C
effect of a mutation on the interaction: disrupting interaction

From IntAct's records for PubMed 9422512
